Laboratory results taken from paper PMC7465668.

Target: S-enantioselective imine reductase from Mycobacterium smegmatis (S-IRED-Ms) (Mycobacterium smegmatis)
Assay: crystal structure; holo-S-IRED-Ms co-crystallised with 5 mM NADPH; 10 mg/mL protein, 20% (w/v) PEG 3350, 0.2 M sodium formate, sitting drop, 4 °C; 1.55 Å, five monomers in the asymmetric unit

S-enantioselective imine reductase from Mycobacterium smegmatis (S-IRED-Ms) (enzyme)
stoichiometry N: 2
